Results published in patent US5472938A, “Pharmaceutical depot compositions containing hirudin” (Ciba-Geigy Corporation, priority 1993, dated 1995).

Assay: Storage of hirudin in water, chromatographic analysis (Mono Q / ProPac)
Format: physicochemical
Settings: FIG. 2
Experimental: MONO Q METHOD: The stability of hirudin can be analysed by FPLC ([…] protein liquid chromatography) using a Mono-Q column (10 μm particle size, 5.0×50 mm, purchased from Pharmacia). The method was developed by Ciba-Geigy, Basel. Solvent A is 50 mM HCOONH4 in H2 O pH 4.5, and solvent B is 50 mM HCOONH4 in H2 O , pH 3.5. The elution is performed at room temperature (22° C.) using a flow rate of 1.4 ml/min. The binary elution for the first 5 min is at constant flow of 20% B, followed by a linear gradient from 20% B to 75% B over 10 minutes, and 2 minutes at 100% B after which the column is equilibrated for 2 min at the starting conditions of 20% B.
PROPAC METHOD: A recently published method for hirudin analysis can also be used [Tuong, A., Maftouh, M., Ponthus, C., Whitechurch, O., Roitsch, C., and Picard, C. (1992) "Characterisation of the Deamidated Forms of Recombinant Hirudin" Biochemistry 31, 8291-8299]. In this method a ProPac PAl anion-exchange column (250×4 mm i.d.) from Dionex is used. Solvent A is 20 mM Tris-HCl, pH 7.0 and solvent B is 0.5M NaCL in A. Isocrastic elution for 5 min at 28% is followed by a linear gradient from 28%B to 54%B over 60 min at a flow rate of 1.3 ml/mim.
The two peaks which elute in the front of the main peak (FIG. 1) are referred to as Q4 and Q5 peaks, respectively. […] The exact nature of the products which produce those extra peaks is not known.

hirudin
change of chromatogram on storage in water: increase of the Q4 and Q5 peaks with time
